In patent EP4545563A1 (Foreseen Technology (Beijing) Co., Ltd., dated 2024):
Substitutions are numbered along the chain they refer to.

B1: FS002-A36-vc-MMAE (antibody, human IgG1, kappa, V domains shown)
VH: QVQLQESGPGLVKPSQTLSLTCTVSGGSISSGGYYWSWIRQHPGKGLEWIGYIYYSGSTYYNPSLKSRVTISVDTSKNQFSLKLSSVTAADTAVYYCARVRLLGGGFDIWGQGTTVTVSS
VL: EIVLTQSPATLSLSPGERATLSCRASQSVSTYLAWYQQKPGQAPRLLIYDTSIRATGIPARFSGSGSGTDFTLTISSLEPEDFAVYYCQQRSNWPLTFGGGTKVEIKR
modifications: vc-MMAE (mc-vc-PAB-MMAE) linker-payload conjugated after TCEP reduction, DAR 3.8 for the whole antibody; sites not stated
B2: FS002-A15-vc-MMAE (antibody, human IgG1, kappa, V domains shown)
VH: RLQLQESGPGLVKPSQTLSLTCTVSGGSISSGGYYWSWIRQHPGKGLEWIGYIYYSGSTYYNPSLKSRVTISVDTSKNQFSLKLSSVTAADTAVYYCARATIYGYFDYWGQGTLVTVSS
VL: EIVLTQSPATLPLSPGERATLSCRASQSVGFYLAWYQQKPGQPPRLLFYDASKRATGIPARFSASGSGTDFTLTISGLEPEDFAVYYCQHRISWPLTFGQGTKVEVKR
modifications: vc-MMAE (mc-vc-PAB-MMAE) linker-payload conjugated after TCEP reduction, DAR 2.9 for the whole antibody; sites not stated
B3: FS002-A1-vc-MMAE (antibody, V domains shown)
VH: QVQLVQSGAEVKKPGASVKVSCKASGYTFTSYYMHWVRQAPGQGLEWMGIINPSGGSTSYAQKFQGRVTMTRDTSTSTVYMELSSLRSEDTAVYYCARDISGSYQTDAFDIWGQGTMVTVSS
VL: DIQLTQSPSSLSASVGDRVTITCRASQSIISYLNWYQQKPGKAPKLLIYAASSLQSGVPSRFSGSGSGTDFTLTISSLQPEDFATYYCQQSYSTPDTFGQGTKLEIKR
modifications: vc-MMAE (mc-vc-PAB-MMAE) linker-payload conjugated after TCEP reduction, DAR 3.4 for the whole antibody; sites not stated
B4: Humanized antibody FS002-B27 (antibody, human IgG1, kappa, V domains shown)
VH: QVQLVQSGAEVKKPGSSVKVSCKASGGTFSSYAISWVRQAPGQGLEWMGRIIPILGIANYAQKFQGRVTITADKSTSTAYMELSSLRSEDTAVYYCARAEGSSWYYFDYWGQGTLVTVSS
VL: NIQLTQSPSSVSASVGDRVTITCRASQGFSRWLAWYQQKPGKAPKLLIYGASSLQSGVPSRFSGSGSGTDFTLTISSLQPEDFATYYCQQANSFPLTFGGGTKLEIKR
notes: IgG1 heavy chain, kappa light chain
B5: Humanized antibody FS002-A5 (antibody, human IgG1, kappa, V domains shown)
VH: QVQLQDSGPGLVKPSQTLSLTCTVSGGSISSGGYYWSWIRQHPGKGLEWIGYIYYSGSTYYNPSLKSRVTISVDTSKNQFSLKLSSVTAADTAVYYCARVPVPLVGAFDIWGQGTMVTVSS
VL: B1 VL with T31S, Y32N, A34G, R45S, D50G, T51A, I53N, S92D, N93T
notes: as for B4
B6: Humanized antibody FS002-A66 (antibody, human IgG1, kappa, V domains shown)
VH: EVQLVESGGGVVQPGRSLRLSCAASGFTFSSYAMHWVRQAPGKGLEWVAVISYDGSNKYYVDSVKGRFTISRDNSKNTLYLQMNSLRAEDTAVYYCARDRITYLDYYYYGMDVWGQGTTVTVSS
VL: B1 VL with T10I, T31E, T51I, I53N, G68E, S92R, N93T, G100P, E105D
notes: as for B4
B7: Humanized antibody FS002-A72 (antibody, human IgG1, kappa, V domains shown)
VH: QVQLVDSGGGLVQPGGSLRLSCVASGFAFSNYEMNWVRQAPGKGLEWVSYISSSSSYTNYADSVKGRFTISRDNAKNSLYLQMNSLRAEDTAVYYCARAQVRDAFDIWGQGTTVTVSS
VL: IVMTQSPVTLSVSPGDSATLSCRASQSVDKNLAWYQQKTGQAPRLLIYGAATRATGIPARFSGSGSGTEFTLTISSLRSEDFAVYYCQQYRNWPWTFGLGTKVEIKR
notes: as for B4
B8: Humanized antibody FS002-C11 (antibody, human IgG1, kappa, V domains shown)
VH: RLQLQESGPRLVKPSETLSLTCSVSGGSISSRNHYWAWIRQPPGKGLEWIGYIYYSGSTYYNPSLKSRVTISVDTSKNQFSLKLSSVTAADTAVYYCARVGLLLRDFDYWGQGTLVTVSS
VL: DIQMIQSPSSVSASVGDRVTITCRASQGISNSLAWYQHKPGTTPKLLIYAASSLQGGVPSRFSGSSSETDFTLTISSLQPEDFATYYCQQANSFPITFGQGTRLDIKR
notes: as for B4

These binders were tested against T1, ITGA2 protein on the surface of human tumor cells (HuCCT1, A431) (human, UniProt P17301 30-1181) (assay: cell-based or functional assay).
T1 sequence (looked up): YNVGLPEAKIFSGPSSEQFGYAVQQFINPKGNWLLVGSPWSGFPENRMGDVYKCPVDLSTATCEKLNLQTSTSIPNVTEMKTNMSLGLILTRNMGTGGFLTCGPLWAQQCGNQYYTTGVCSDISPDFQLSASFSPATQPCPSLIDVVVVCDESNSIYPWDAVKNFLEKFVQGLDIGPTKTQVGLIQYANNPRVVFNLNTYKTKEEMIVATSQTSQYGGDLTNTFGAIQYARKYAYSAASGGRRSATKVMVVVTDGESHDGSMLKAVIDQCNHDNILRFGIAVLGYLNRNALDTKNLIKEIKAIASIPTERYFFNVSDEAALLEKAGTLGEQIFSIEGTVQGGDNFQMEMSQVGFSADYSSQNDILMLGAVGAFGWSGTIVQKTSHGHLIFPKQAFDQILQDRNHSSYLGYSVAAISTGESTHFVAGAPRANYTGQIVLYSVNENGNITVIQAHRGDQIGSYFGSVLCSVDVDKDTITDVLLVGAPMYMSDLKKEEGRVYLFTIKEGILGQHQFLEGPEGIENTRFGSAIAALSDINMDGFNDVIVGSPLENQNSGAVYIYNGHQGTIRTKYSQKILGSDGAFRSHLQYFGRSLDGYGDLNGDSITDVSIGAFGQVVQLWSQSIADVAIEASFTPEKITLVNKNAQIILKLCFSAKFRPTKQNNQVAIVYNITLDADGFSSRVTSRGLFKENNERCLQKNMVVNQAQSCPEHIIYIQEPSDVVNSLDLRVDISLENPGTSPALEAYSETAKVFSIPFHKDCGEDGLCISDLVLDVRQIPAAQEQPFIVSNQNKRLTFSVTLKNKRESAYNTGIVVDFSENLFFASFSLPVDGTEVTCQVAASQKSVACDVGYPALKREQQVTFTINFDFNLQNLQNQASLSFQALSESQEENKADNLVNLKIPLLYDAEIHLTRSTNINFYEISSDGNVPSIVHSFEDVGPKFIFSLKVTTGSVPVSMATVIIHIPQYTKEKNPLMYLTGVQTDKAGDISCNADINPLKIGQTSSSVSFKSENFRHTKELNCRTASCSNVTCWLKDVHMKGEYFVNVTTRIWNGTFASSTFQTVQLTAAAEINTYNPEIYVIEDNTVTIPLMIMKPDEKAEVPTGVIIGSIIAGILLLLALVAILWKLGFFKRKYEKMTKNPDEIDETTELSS

Row | Binder | A431 cell killing IC50 [nM] | HuCC-T1 cell killing IC50 [nM]
1 | B1 | 0.02 | 0.08
2 | B2 | 0.2 | 0.2
3 | B3 | 0.14 | 0.14

Each binder was assayed against T2, ITGA2-His (human, UniProt P17301 30-1132, limits assumed) (assay: ELISA, plate coated with 2 ug/mL ITGA2-His, anti-human IgG-Fc-HRP detection).
T2 construct: also called ITGA2 protein; not shown: His tag
T2 sequence (looked up): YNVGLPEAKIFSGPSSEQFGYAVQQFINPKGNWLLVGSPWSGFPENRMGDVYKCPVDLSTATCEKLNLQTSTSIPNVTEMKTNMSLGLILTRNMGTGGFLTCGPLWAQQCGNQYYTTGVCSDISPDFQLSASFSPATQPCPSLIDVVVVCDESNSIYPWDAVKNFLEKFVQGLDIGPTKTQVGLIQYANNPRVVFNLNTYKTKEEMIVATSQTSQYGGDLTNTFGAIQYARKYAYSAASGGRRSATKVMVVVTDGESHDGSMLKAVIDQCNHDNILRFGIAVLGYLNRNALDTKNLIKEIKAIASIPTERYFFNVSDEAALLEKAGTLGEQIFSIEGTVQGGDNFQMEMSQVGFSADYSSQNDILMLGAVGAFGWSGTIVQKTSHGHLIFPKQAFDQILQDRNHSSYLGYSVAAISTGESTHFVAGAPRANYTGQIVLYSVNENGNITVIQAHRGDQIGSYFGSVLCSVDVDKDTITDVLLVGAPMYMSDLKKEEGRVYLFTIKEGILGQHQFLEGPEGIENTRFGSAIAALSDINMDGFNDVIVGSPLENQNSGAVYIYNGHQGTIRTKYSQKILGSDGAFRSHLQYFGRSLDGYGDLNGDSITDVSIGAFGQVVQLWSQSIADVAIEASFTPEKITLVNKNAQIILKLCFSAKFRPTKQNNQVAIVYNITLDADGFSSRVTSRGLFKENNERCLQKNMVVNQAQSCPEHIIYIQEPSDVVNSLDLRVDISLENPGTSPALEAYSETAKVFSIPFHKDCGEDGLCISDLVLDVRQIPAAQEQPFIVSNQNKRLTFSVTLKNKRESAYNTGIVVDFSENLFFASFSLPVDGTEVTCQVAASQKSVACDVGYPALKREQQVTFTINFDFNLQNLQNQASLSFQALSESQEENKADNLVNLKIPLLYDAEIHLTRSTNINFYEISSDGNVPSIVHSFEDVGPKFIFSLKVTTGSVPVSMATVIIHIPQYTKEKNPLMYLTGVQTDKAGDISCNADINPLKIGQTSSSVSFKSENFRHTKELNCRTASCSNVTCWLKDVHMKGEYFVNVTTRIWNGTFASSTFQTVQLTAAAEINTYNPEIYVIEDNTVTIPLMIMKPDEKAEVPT

Row | Binder | EC50 [nM]
4 | B4 | 0.571
5 | B5 | 0.032
6 | B6 | 0.031
7 | B7 | 0.259
8 | B8 | 0.035

Each binder was assayed against T1, ITGA2 protein on the surface of human … (assay: flow cytometry on HuCCT1 cells, goat anti-human IgG (H+L) secondary antibody).

Row | Binder | EC50 [nM]
9 | B4 | 2.75
10 | B5 | 1.27
11 | B6 | 2.35
12 | B7 | 17.2
13 | B8 | 0.747
